The test deals with Insulin receptors (Homo sapiens, UniProt P06213). The test can be described thus: Insulin receptor binding affinity by surface plasmon resonance (BIACORE 3000). The conditions noted are these: for ka / kd: SPR, immobilized insulin receptor, 1:1 Langmuir binding with baseline drift, Test 1-5 runs; for receptor binding affinity (KD) compared to human insulin: native human insulin of the same test = 100%. As to the method: Then, the insulin receptor binding affinity of each substance was examined. The binding affinity of each substance was calculated using BIAevaluation software. At this time, the model used was 1:1 Langmuir binding with baseline drift.

Turning to “Insulin analog (No. 6): insulin analog, modified sequence B^24F->A; protein SEQ ID NO: 30”, the ka is given as 0.28 1/Ms, ×10^5; the kd is 6.60 1/s, ×10^−3; the “receptor binding affinity (KD) compared to human insulin” value was “(14.8%)”.

In the case of “Insulin analog (No. 7): insulin analog, modified sequence B^25F->A; protein SEQ ID NO: 32”, the ka was 0.14 1/Ms, ×10^5; the kd is recorded as 8.34 1/s, ×10^−3; the “receptor binding affinity (KD) compared to human insulin” value was “(9.9%)”.

For the substance “Insulin analog (No. 8): insulin analog, modified sequence A^14Y->E; protein SEQ ID NO: 34”, the ka is reported as 1.78 1/Ms, ×10^5; the kd is recorded as 12.9 1/s, ×10^−3; the “receptor binding affinity (KD) compared to human insulin” value is on record as “(57.1%)”.

With “Insulin analog (No. 9): insulin analog, modified sequence A^14Y->N; protein SEQ ID NO: 36”, the ka is on record as 1.85 1/Ms, ×10^5; the kd is 11.9 1/s, ×10^−3; the “receptor binding affinity (KD) compared to human insulin” value was “(78.8%)”.

The record behind these values is patent US10253082B2, “Long-acting insulin and use thereof” (HANMI PHARM. CO., LTD., priority 2014, dated 2019).
